This assay has as its target MBP-BSU1 (Arabidopsis, UniProt Q9LR78 1-793). Description: pull-down.

This is an account of results in publication PMC7144476 (Molecular plant, 2015).

MBP-BSU1, sequence (Q9LR78 whole entry): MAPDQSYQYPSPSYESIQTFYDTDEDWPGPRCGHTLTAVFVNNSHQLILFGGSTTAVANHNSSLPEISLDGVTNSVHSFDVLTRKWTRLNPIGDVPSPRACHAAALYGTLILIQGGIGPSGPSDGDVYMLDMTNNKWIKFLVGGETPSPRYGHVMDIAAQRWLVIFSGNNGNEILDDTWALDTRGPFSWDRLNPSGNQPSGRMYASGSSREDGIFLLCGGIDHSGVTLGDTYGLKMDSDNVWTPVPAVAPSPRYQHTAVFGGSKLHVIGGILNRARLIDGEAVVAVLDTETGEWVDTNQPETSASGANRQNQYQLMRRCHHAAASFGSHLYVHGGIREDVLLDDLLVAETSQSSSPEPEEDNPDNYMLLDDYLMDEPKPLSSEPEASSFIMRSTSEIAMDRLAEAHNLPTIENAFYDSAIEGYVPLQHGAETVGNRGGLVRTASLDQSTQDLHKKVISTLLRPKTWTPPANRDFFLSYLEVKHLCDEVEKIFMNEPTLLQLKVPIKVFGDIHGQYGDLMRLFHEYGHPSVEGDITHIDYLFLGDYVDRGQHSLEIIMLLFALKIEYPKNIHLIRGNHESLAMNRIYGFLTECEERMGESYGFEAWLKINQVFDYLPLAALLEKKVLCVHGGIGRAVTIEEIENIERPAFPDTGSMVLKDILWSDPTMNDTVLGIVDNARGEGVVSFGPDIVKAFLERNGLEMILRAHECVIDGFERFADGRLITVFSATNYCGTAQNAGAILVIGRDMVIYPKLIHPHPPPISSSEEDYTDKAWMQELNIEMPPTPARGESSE

B1: BSK1-myc (natural protein, UniProt Q944A7 1-512, looked up)
chain: MGCCQSLFSGDNPLGKDGVQPQPLSQNNHGGATTADNGGSGGASGVGGGGGGGGIPSFSEFSFADLKAATNNFSSDNIVSESGEKAPNLVYKGRLQNRRWIAVKKFTKMAWPEPKQFAEEAWGVGKLRHNRLANLIGYCCDGDERLLVAEFMPNDTLAKHLFHWENQTIEWAMRLRVGYYIAEALDYCSTEGRPLYHDLNAYRVLFDEDGDPRLSCFGLMKNSRDGKSYSTNLAYTPPEYLRNGRVTPESVTYSFGTVLLDLLSGKHIPPSHALDMIRGKNIILLMDSHLEGKFSTEEATVVVELASQCLQYEPRERPNTKDLVATLAPLQTKSDVPSYVMLGIKKQEEAPSTPQRPLSPLGEACSRMDLTAIHQILVMTHYRDDEGTNELSFQEWTQQMKDMLDARKRGDQSFREKDFKTAIDCYSQFIDVGTMVSPTVFGRRSLCYLLCDQPDAALRDAMQAQCVYPDWPTAFYMQSVALAKLNMNTDAADMLNEAAQLEEKRQRGGRGS
Regarding B1, the binding result is listed as “binds”.
